Results on seven molecules are retold here after PMC11068563, “The MCU and MCUb amino-terminal domains tightly interact: mechanisms for low conductance assembly of the mitochondrial calcium uniporter complex” (iScience, 2024).

Experiment [1] deals with MCU amino-terminal domain (MCU-NTD), MCU 72-189 (human) (UniProt Q8NE86). In words: SEC-MALS; 100 uL injected at 3.0 mg mL-1 (mixed sample: final 1.5 mg mL-1 of each component); Superdex 200 Increase 10/300 GL; 20 mM Tris (pH 8.5), 150 mM NaCl, 1 mM DTT, 10 C; with 5 mM CaCl2. On the technique in general: SEC sorts molecules by how far they enter the pores of the column.
Experiment [2] has the same target. Description: SEC-MALS; 100 uL injected at 3.0 mg mL-1 (mixed sample: final 1.5 mg mL-1 of each component); Superdex 200 Increase 10/300 GL; 20 mM Tris (pH 8.5), 150 mM NaCl, 1 mM DTT, 10 C; with 5 mM MgCl2.
The target is the same in experiment [3]. Description: SEC-MALS; 100 uL injected at 3.0 mg mL-1 (mixed sample: 3 mg mL-1 each mixed, final 1.5 mg mL-1 of each component); Superdex 200 Increase 10/300 GL; 20 mM Tris (pH 8.5), 150 mM NaCl, 1 mM DTT, 10 C; no divalent cations.
Experiment [4] has as its target MCU amino-terminal domain (MCU-NTD), MCU residues 72-189 (human) (UniProt Q8NE86). Description: cross-linking; 1 mM BS-3, 90 min, 20 mM HEPES (pH 8.4), 150 mM NaCl, 1 mM DTT, ambient temperature; proteins at 67.5 uM, mix with 67.5 uM or 33.8 uM of each; SDS-PAGE, Coomassie.
Experiment [5] has as its target T1, MCU amino-terminal domain (MCU-NTD), MCU 72-189 (human, UniProt Q8NE86-1 72-189).
T1 construct: mitochondrial calcium uniporter (MCU), Homo sapiens, GenBank NP_612366.1, N-terminal domain, residues 72-189; theoretical monomer mass printed as 13.8637 kDa
T1 sequence (looked up): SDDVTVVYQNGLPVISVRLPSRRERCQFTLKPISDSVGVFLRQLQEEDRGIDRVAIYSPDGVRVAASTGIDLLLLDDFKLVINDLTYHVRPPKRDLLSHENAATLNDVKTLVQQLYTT
Description: SEC-MALS; 100 uL injected at 3.0 mg mL-1 (mixed sample: final 1.5 mg mL-1 of each component); Superdex 200 Increase 10/300 GL; 20 mM Tris (pH 8.5), 150 mM NaCl, 1 mM DTT, 10 C; with 5 mM CaCl2. Conditions: both partners purified.

The target of experiment [6] is MCUb amino-terminal domain (MCUb-NTD), MCUb 58-159 (human) (UniProt Q9NWR8). In words: SEC-MALS; 100 uL injected at 2.0 mg mL-1; Superdex 200 Increase 10/300 GL; 20 mM Tris (pH 8.5), 150 mM NaCl, 1 mM DTT, 10 C; no divalent cations.
The target is the same in experiment [7]. In words: SEC-MALS; 100 uL injected at 3.0 mg mL-1 (mixed sample: final 1.5 mg mL-1 of each component); Superdex 200 Increase 10/300 GL; 20 mM Tris (pH 8.5), 150 mM NaCl, 1 mM DTT, 10 C; with 5 mM CaCl2.
For experiment [8], the target named is T2, Fluorescein-MCU-NTD (MCU 72-189 labelled with fluorescein-MTS at Cys97) (human, UniProt Q8NE86-1 72-189, fluorescein (fluorescein-methane thiosulfonate) on Cys97).
T2 construct: mitochondrial calcium uniporter (MCU), Homo sapiens, GenBank NP_612366.1, N-terminal domain, residues 72-189; also called MCU-NTD-fluorescein; source: labelled with fluorescein-MTS
T2 sequence (looked up): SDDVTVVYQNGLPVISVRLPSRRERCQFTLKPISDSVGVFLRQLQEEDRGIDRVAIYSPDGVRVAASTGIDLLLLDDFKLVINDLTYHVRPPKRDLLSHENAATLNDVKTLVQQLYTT
In words: other fluorescence titration; steady-state fluorescein fluorescence; ~0.1 uM fluorescein-MCU-NTD titrated with MCUb-NTD; 20 mM Tris (pH 8.5), 150 mM NaCl, 1 mM DTT, 0.0001% (v/v) NP-40, 5 mM CaCl2; 22.5 C; one-site model. Conditions: both partners purified.

The target in experiment [9] is T1, MCU amino-terminal domain (MCU-NTD), …. Description: SEC-MALS; 100 uL injected at 3.0 mg mL-1 (mixed sample: final 1.5 mg mL-1 of each component); Superdex 200 Increase 10/300 GL; 20 mM Tris (pH 8.5), 150 mM NaCl, 1 mM DTT, 10 C; with 5 mM MgCl2. The note with it: both partners purified.
For experiment [10], the target named is T2, Fluorescein-MCU-NTD (MCU 72-189 …). Description: other fluorescence titration; steady-state fluorescein fluorescence; ~0.1 uM fluorescein-MCU-NTD titrated with MCUb-NTD; 20 mM Tris (pH 8.5), 150 mM NaCl, 1 mM DTT, 0.0001% (v/v) NP-40, 5 mM MgCl2; 22.5 C; one-site model. The note with it: both partners purified.
Experiment [11] concerns the target MCUb amino-terminal domain (MCUb-NTD), MCUb 58-159 (human) (UniProt Q9NWR8). Description: SEC-MALS; 100 uL injected at 4.0 mg mL-1; Superdex 200 Increase 10/300 GL; 20 mM Tris (pH 8.5), 150 mM NaCl, 1 mM DTT, 10 C; no divalent cations.
For experiment [12] the target is unchanged. Description: SEC-MALS; 100 uL injected at 3.0 mg mL-1 (mixed sample: final 1.5 mg mL-1 of each component); Superdex 200 Increase 10/300 GL; 20 mM Tris (pH 8.5), 150 mM NaCl, 1 mM DTT, 10 C; with 5 mM MgCl2.
The target is the same in experiment [13]. In words: SEC-MALS; 100 uL injected at 3.0 mg mL-1 (mixed sample: 3 mg mL-1 each mixed, final 1.5 mg mL-1 of each component); Superdex 200 Increase 10/300 GL; 20 mM Tris (pH 8.5), 150 mM NaCl, 1 mM DTT, 10 C; no divalent cations.
In experiment [14] the target is T1, MCU amino-terminal domain (MCU-NTD), …. The description is as above. Conditions: both partners purified.
The target of experiment [15] is T3, MCU-NTD-D147R, MCU 72-189 D147R (human, UniProt Q8NE86-1 72-189, D147R).
T3 construct: mitochondrial calcium uniporter (MCU), Homo sapiens, GenBank NP_612366.1, N-terminal domain, residues 72-189, with D147R
T3 sequence (looked up): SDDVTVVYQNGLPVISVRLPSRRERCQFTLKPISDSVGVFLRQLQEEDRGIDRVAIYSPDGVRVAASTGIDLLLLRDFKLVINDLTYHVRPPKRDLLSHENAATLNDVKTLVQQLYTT
Description: other fluorescence titration; steady-state fluorescein fluorescence; ~0.1 uM fluorescein-MCUb-NTD titrated with unlabelled MCU-NTD variant; 20 mM Tris (pH 8.5), 150 mM NaCl, 1 mM DTT, 0.0001% (v/v) NP-40; 22.5 C; one-site model. Conditions: both partners purified.

Experiment [16] concerns the target T3, MCU-NTD-D147R, MCU 72-189 D147R. In words: MST; ~0.5 uM Red-(NHS)-MCUb-NTD titrated with unlabelled MCU-NTD variant; 20 mM Tris (pH 8.5), 150 mM NaCl, 1 mM DTT, 0.05% (v/v) NP-40; 22 C; one-site model. Conditions: both partners purified.
Experiment [17] has as its target T4, MCU amino-terminal domain (MCU-NTD), MCU residues 72-189 (human, UniProt Q8NE86-1 72-189).
T4 construct: mitochondrial calcium uniporter (MCU), Homo sapiens, GenBank NP_612366.1, residues 72-189 (amino-terminal domain); theoretical monomer mass 13.8637 kDa is printed; also called MCU_(72-189); 15N-MCU-NTD; source: 15N-labelled in M9 minimal medium for NMR
T4 sequence (looked up): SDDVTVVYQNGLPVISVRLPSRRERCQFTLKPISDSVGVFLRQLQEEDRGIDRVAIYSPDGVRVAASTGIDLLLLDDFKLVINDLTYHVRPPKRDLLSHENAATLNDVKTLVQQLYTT
Description: other fluorescence titration; steady-state fluorescein fluorescence; 0.1 uM MCUb-NTD-fluorescein titrated with MCU-NTD or MCU-NTD-D147R; 20 mM Tris (pH 8.5), 150 mM NaCl, 1 mM DTT, 0.0001% (v/v) NP-40, 22.5°C; one-site model. The note with it: both partners purified.

Experiment [18] addresses T4, MCU amino-terminal domain (MCU-NTD), …. In words: MST; Red-NHS-labelled MCUb-NTD, increasing MCU-NTD or MCU-NTD-D147R; 20 mM Tris (pH 8.5), 150 mM NaCl, 1 mM DTT, 0.05% (v/v) NP-40, 22°C; one-site model. The note with it: both partners purified.

Take “MCU amino-terminal domain (MCU-NTD), MCU 72-189 (from UniProt Q8NE86-1 72-189) (domain or fragment)”: the stoichiometry N – broadly, the number of molecules, sites or subunits per partner or assembly – was 0.96 in [1], 1.05 in [2] and 0.98 in experiment [3].
Turning to “MCU amino-terminal domain (MCU-NTD), MCU residues 72-189 (from UniProt Q8NE86-1 72-189) (domain or fragment)”, the stoichiometry N in [4] was found to be 2.

B1: MCUb amino-terminal domain (MCUb-NTD), MCUb 58-159 (domain or fragment, human, UniProt Q9NWR8 58-159, looked up)
chain: DEITVIYRHGLPLVTLTLPSRKERCQFVVKPMLSTVGSFLQDLQNEDKGIKTAAIFTADGNMISASTLMDILLMNDFKLVINKIAYDVQCPKREKPSNEHTA
notes: MCU dominant negative beta subunit (MCUb), Homo sapiens, GenBank NP_060388.2, N-terminal domain, residues 58-159; Theoretical monomer mass printed as 12.0098 kDa; a few vector residues probably remain after thrombin cleavage (pET-28a, NheI/XhoI); source: E. coli BL21(DE3) codon plus, purified (Ni-NTA, thrombin, SEC); not shown: 6xHis, N-terminal, cleaved
As for B1, the “stoichiometry N” value worked out at 1.72 in experiment [5]; 0.95 in experiment [6]; 0.92 in experiment [7]; 1.61 in [9]; 1.02 in experiment [11]; 0.92 in experiment [12]. Moreover, the stoichiometry N in [13] was determined as 0.97; in [14], 1.68. Moreover, the Kd – broadly, the equilibrium constant for the complex coming apart – in [8] is 90 nM; in [10], 160 nM.

B2: Fluorescein-MCUb-NTD (MCUb 58-159 labelled with fluorescein-MTS at Cys82 and Cys147) (domain or fragment, human, UniProt Q9NWR8 58-159, looked up)
chain: DEITVIYRHGLPLVTLTLPSRKERCQFVVKPMLSTVGSFLQDLQNEDKGIKTAAIFTADGNMISASTLMDILLMNDFKLVINKIAYDVQCPKREKPSNEHTA
modifications: fluorescein (fluorescein-methane thiosulfonate) on Cys82 and Cys147
notes: MCU dominant negative beta subunit (MCUb), Homo sapiens, GenBank NP_060388.2, N-terminal domain, residues 58-159; also called MCUb-NTD-fluorescein; source: E. coli BL21(DE3) codon plus, purified (Ni-NTA, thrombin, SEC); labelled with fluorescein-MTS; not shown: 6xHis, N-terminal, cleaved
Molecule B2 had an equilibrium dissociation constant (Kd) in experiment [15] of 250 nM.

B3: Red-(NHS)-MCUb-NTD (MCUb 58-159 labelled with Red-NHS on primary amines) (domain or fragment, human, UniProt Q9NWR8 58-159, looked up)
chain: DEITVIYRHGLPLVTLTLPSRKERCQFVVKPMLSTVGSFLQDLQNEDKGIKTAAIFTADGNMISASTLMDILLMNDFKLVINKIAYDVQCPKREKPSNEHTA
modifications: Red-NHS dye covalently linked to primary amines
notes: MCU dominant negative beta subunit (MCUb), Homo sapiens, GenBank NP_060388.2, N-terminal domain, residues 58-159; also called Red-(NHS)-labeled MCUb-NTD; source: E. coli BL21(DE3) codon plus, purified (Ni-NTA, thrombin, SEC); labelled with the RED-NHS labeling kit (NanoTemper); not shown: 6xHis, N-terminal, cleaved
B3 had a Kd in [16] of 11300 nM.

B4: MCUb-NTD-fluorescein (MCUb residues 58-159 labelled with fluorescein at Cys82 and Cys147) (domain or fragment, human, UniProt Q9NWR8 58-159, looked up)
chain: DEITVIYRHGLPLVTLTLPSRKERCQFVVKPMLSTVGSFLQDLQNEDKGIKTAAIFTADGNMISASTLMDILLMNDFKLVINKIAYDVQCPKREKPSNEHTA
modifications: fluorescein (fluorescein-methane thiosulfonate) on Cys82 and Cys147
notes: MCU dominant negative beta subunit (MCUb), Homo sapiens, GenBank NP_060388.2, residues 58-159 (amino-terminal domain); Same chain as m1, with the label; also called fluorescein-MCUb-NTD; MCUb_(58-159) labeled; source: E. coli BL21(DE3) codon plus, purified (Ni-NTA, thrombin, SEC), then labelled with fluorescein-MTS
For B4, the dissociation constant (Kd) in experiment [17] is 133 nM. This counts as sub-micromolar.

B5: Red-(NHS)-labeled MCUb-NTD (MCUb residues 58-159) (domain or fragment, human, UniProt Q9NWR8 58-159, looked up)
chain: DEITVIYRHGLPLVTLTLPSRKERCQFVVKPMLSTVGSFLQDLQNEDKGIKTAAIFTADGNMISASTLMDILLMNDFKLVINKIAYDVQCPKREKPSNEHTA
modifications: Red-NHS dye covalently linked to primary amines
notes: MCU dominant negative beta subunit (MCUb), Homo sapiens, GenBank NP_060388.2, residues 58-159 (amino-terminal domain); Same chain as m1, with the label; source: E. coli BL21(DE3) codon plus, purified (Ni-NTA, thrombin, SEC), then labelled with the RED-NHS labeling kit (NanoTemper)
Molecule B5 came in with a Kd in [18] of 4650 nM. This counts as single-digit micromolar.
